Results from publication PMC9048679, “Correlation Between Improved Mating Efficiency and Weakened Scaffold-Kinase Interaction in the Mating Pheromone Response Pathway Revealed by Interspecies Complementation” (Frontiers in Microbiology, 2022).
Blank lines part the entries; values can stand above or below the molecule they belong to.

What was measured:
Experiment in all cases: two-hybrid; Matchmaker GAL4 system; Ste5 forms on Gal4-AD (pGADT7, AH109), Ste7 orthologs on Gal4-BD (pGBKT7, Y187), diploids on SC-Leu-Trp; quantitative β-galactosidase assay of cell lysate with ONPG; units of the same BD-Ste7 with void pGADT7 subtracted; mean of three colonies
[1] = biological target: KmSte7 (Ste7 of Kluyveromyces marxianus), Gal4-BD fusion (K. marxianus)
[2] = biological target: KlSte7 (Ste7 of Kluyveromyces lactis), Gal4-BD fusion (K. lactis) (UniProt Q6CSZ8)
[3] = biological target: T1, KmSte7 (Ste7 of Kluyveromyces marxianus), Gal4-BD fusion (K. marxianus, UniProt A0ABX6F0V6 1-494); conditions: partners not purified
T1 construct: Ste7 (MAPKK) of Kluyveromyces marxianus, KEGG KLMA_70246; ORF cloned into the EcoRI site of pGBKT7; source: yeast two-hybrid fusion (pGBKT7, transformed into Y187, diploid with AH109)
T1 sequence (looked up): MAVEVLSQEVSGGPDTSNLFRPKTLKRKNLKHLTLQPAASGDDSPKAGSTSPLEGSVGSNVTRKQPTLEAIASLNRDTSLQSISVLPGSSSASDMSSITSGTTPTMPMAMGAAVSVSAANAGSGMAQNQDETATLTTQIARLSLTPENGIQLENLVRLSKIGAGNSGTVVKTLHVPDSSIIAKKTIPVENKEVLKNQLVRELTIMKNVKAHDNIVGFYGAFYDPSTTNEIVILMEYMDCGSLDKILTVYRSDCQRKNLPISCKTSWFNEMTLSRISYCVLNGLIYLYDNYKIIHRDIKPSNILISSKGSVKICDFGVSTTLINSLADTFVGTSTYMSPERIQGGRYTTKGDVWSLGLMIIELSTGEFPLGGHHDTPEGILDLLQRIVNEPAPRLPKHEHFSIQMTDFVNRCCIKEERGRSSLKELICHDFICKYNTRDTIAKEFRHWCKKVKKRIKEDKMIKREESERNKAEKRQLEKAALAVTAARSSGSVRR

[4] = biological target: T2, KlSte7 (Ste7 of Kluyveromyces lactis), Gal4-BD fusion (K. lactis, UniProt Q6CSZ8 1-504); conditions: partners not purified
T2 construct: Ste7 (MAPKK) of Kluyveromyces lactis, KEGG KLLA0_C16577g; ORF cloned into the EcoRI site of pGBKT7; source: yeast two-hybrid fusion (pGBKT7, transformed into Y187, diploid with AH109)
T2 sequence (looked up): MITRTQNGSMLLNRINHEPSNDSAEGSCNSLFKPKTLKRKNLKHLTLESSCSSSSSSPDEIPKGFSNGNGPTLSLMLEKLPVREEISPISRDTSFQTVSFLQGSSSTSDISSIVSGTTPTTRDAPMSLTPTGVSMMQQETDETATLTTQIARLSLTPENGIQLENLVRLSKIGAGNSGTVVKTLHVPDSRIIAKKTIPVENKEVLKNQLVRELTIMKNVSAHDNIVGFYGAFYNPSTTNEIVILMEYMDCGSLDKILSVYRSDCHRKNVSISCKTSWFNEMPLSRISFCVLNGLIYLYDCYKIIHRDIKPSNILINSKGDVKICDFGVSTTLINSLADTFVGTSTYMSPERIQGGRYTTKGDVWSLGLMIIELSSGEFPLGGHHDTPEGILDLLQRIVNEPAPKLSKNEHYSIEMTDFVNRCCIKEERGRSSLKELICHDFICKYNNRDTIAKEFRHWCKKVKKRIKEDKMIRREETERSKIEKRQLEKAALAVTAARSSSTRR

Molecule: KlSte5-KmBD (KlSte5 with its Ste7-binding region replaced by that of KmSte5), Gal4-AD fusion (from UniProt A0ABX6ETE1 660-763)
- strength of the interaction (units of β-galactosidase) (units of β-galactosidase) [1]: 11
- strength of the interaction (units of β-galactosidase) (units of β-galactosidase) [2]: 20.3

B1: KmSte5 (Ste5 of Kluyveromyces marxianus), Gal4-AD fusion (natural protein, K. marxianus, UniProt A0ABX6ETE1 1-763, looked up)
chain: MNSQEILFQLTNVGSTPVSSKNDTMTTPTSGSNTSSPRRWTELFSKKRAKTPSISTPSTSSSAVSSLHDGSPVRPGSKQSFRHFNIDSALQYPPVMQSPESYHSAGNGNGSGHGNVQVGKKPHRRGGNKSWKNEKCCICRDLCSFKGSTERVIILQCNHMCHEDCLMVSLNPVSKTFDLYDALPKCQMCSMLCVPSQEDMKQRLRNHLLTVNSSSSDQLSSAIPQVQSQLKPHNSPENTRTGIGPLAPPPPPLSMRNAVKTTPTNRDIRLSFASSLKPPVFVTPSVRDSWRLPRASSIKRRSNNYRGSTISALSSITSSSSLYNDSQLVCSLHIQRQYFMQAFLTSFEEIKPWEIDSRYGLLRLIDYFLISLDDQGFKQCCCYLFSEYLLLCQPSSKASSNVLQFSSYRFLQLNSPANIELIDATTLELKAKTGERVRIKPFNSDTKSLEKWITAFFDPTLTFGNLDFTSIPLPDFVSAMPSADDSRTIIVRRQNTINETIVTAGPRDSTLFTSISSILSIKRSTPRELNVILQVDRRKLKSENLITIKNVLSALTWKYHDFNCCIVGVDGLIVKIGGAREILDSWAEISDAGTQPFSPALLYKTWYKERGKVCNNAGVLVISNASMETGKTCLFHDYRMFANVGKRHVNELKIKVGFLNVDYTNKIKELVEIQDWNELLEAVSYSFNINFDDDDDDDDDEGDSDTSDSFSVGSSEFNKSLNSDNERLVRPPSPTSFEDIEADSHSQFDDDSELQHSIIYDYL
notes: Ste5 of Kluyveromyces marxianus, KEGG KLMA_20171; probably the whole ORF; also called natural KmSte5; source: yeast two-hybrid fusion (pGADT7, transformed into AH109, diploid with Y187)
- strength of the interaction (units of β-galactosidase) [3]: 22.8 units of β-galactosidase
- strength of the interaction (units of β-galactosidase) [4]: 30 units of β-galactosidase

Further lines, results first:

- strength of the interaction (units of β-galactosidase) (units of β-galactosidase) [1]: 14.9
- strength of the interaction (units of β-galactosidase) (units of β-galactosidase) [2]: 31.8
Molecule: KmSte5-KlBD (KmSte5 with its Ste7-binding region replaced by that of KlSte5), Gal4-AD fusion (from UniProt A0ABX6ETE1 1-659)

- strength of the interaction (units of β-galactosidase) [3]: 8.13 units of β-galactosidase
- strength of the interaction (units of β-galactosidase) [4]: 13.7 units of β-galactosidase
B2: KlSte5 (Ste5 of Kluyveromyces lactis), Gal4-AD fusion (natural protein, K. lactis, UniProt Q6CKB4 1-746, looked up)
chain: MSRGNTSSMNSQDILFQLTNVGSSPVPKLDTGSTSGSNTSSPRRWTELFSKKRVKTPSVGTPSTASSMISSFYDSSPIRPVSKQHPKHLLVDPIMPPPPIMLSPIGHETLGKKPTRKNGNKSWKNERCCICGDLCSFKGSNEKVIPLECNHMCHEDCLMVSLRPLPHKSNLYDALPKCDICSMSCIPGQEDMRQKVRSHLLTLPDDGESVGLEPYNPQENYERIKLCDADLLPKHSGNDETFPHLQTTRTTARNNDIRLSFAFSLKPGKTVTPSLRDSIRLHRSRSIKRRSNFRGSTVSGLSSIVSSSSKDDCQLPSLHVQRQYFIQAFLNSFSEVKPWEIDAKYGLLRLIDNFLISLDGINFQHQVCYLFSEYLLVCRPSPATSANVLQFSSYRCFQLNNPPELDLLDATTLESKSRSGERILIKPYGLDTKALEKWITALFDLTLPFGNYDFTSIKVPEFVACIPSTNDTGTIIVRRQSTLNETLIPKTIRDSSVLTSISSILSIKRATPNELNLVLQLDKRKTNEDNIVSIKNVILALTWKFSTFNCCIVDVEGMVINCGTANDVLNSLAGPIKSNGNQPFSPDLLHQLWYRQKQKICKNVGVVVLSNSSMENGKSCLFSDYRIFADAGKRHPNELKIKVGFLNVDYSDNIKELVEIQDWNELLEAVAYSFNLSFDDDLDSSDCVSTSSSDFEVDSVPDKNRTFRLSSPISWENHVQADLTGSMNGISESIEDRQSNHMYDYL
notes: Ste5 of Kluyveromyces lactis, KEGG KLLA0_F12023g; probably the whole ORF; source: yeast two-hybrid fusion (pGADT7, transformed into AH109, diploid with Y187)
